Here are results for one substance from patent EP3443010B1.

Where “and” joins values, the source holds several entries; their conditions need not be identical. Equal entries are not always repeated.

For this test, the target named is recombinant hSIRPa (Sino Biologicals, reference 10975-H08H) (human) (UniProt P78324). The test is described as follows: ELISA, hSIRPa (Sino 10975-H08H) coated at 0.5 ug/ml, anti-mouse Fc detection. (In general: ELISA stands for enzyme-linked immunosorbent assay.)
recombinant hSIRPa (Sino Biologicals, reference 10975-H08H) (human), sequence (P78324 other isoform, or with tags, fused parts or gaps H08H H08H): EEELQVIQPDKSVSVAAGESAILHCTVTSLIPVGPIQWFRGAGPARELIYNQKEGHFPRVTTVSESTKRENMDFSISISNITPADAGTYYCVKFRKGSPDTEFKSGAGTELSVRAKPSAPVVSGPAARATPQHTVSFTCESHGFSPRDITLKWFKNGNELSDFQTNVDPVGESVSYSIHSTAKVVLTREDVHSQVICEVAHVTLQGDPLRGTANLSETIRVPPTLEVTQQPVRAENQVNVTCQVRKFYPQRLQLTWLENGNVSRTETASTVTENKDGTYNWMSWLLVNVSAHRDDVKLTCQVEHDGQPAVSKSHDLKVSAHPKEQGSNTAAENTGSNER

For SE5A5 (antibody), the concentration for a half-maximal effect (EC50) – broadly, the concentration at which the effect is half-maximal – was 0.16 nM and 0.024 µg/mL.
